Here are results for one substance from publication PMC3431827.

For the assay, the target named is 2,4,6-TCP 4-monooxygenase (TcpA) from Cupriavidus necator JMP134 (Cupriavidus necator JMP134). In words: SEC-MALS; 100 μg TcpA on BioSep-SEC-S 2000 column, isocratic, 0.5 mL/min; multi-angle laser light scattering; tetramer.

With “2,4,6-TCP 4-monooxygenase (TcpA) from Cupriavidus necator JMP134 (enzyme)”, the stoichiometry N was 4.
